From the supplement of paper PMC11316812
± gives the standard deviation of the averaged measurements.

Columns and labels:
[1] = tested on: MCF7; experiment: percentage of EdU-negative (G0-arrested) nuclei per well, 72 h; higher = more G0 arrest; settings: reference: sequence is the full UniProt precursor, the tested protein was the secreted form or ectodomain
[2] = tested on: hTERT-HMEC; experiment: as above; settings: reference: sequence is the full UniProt precursor, the tested protein was the secreted form or ectodomain
[3] = protein concentration 0.0225 µM
[4] = protein concentration 0.03125 µM
[5] = protein concentration 0.3125 µM
[6] = protein concentration 0.01675 µM
[7] = protein concentration 0.1675 µM
[8] = protein concentration 0.0262857 µM
[9] = protein concentration 0.262857 µM
[10] = protein concentration 0.02657 µM
[11] = protein concentration 0.2657 µM
[12] = protein concentration 0.009215 µM
[13] = protein concentration 0.09215 µM
[14] = protein concentration 0.0070625 µM
[15] = protein concentration 0.070625 µM
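Note: secreted proteins added to cultured cells, EdU pulse at the end, nuclei found by Hoechst imaging, EdU status from nuclear versus surrounding ring intensity ratio, PBS as neutral control.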

In the case of “MFHSSAMVNSHRKPMFNIHRGFYCLTAILPQICICSQFSVPSSYHFTEDPGAFPVATNGERFPWQELRLPSVVIPLHYDLFVHPNLTSLDFVASEKIEVLVSNATQFIILHSKDLEITNATLQSEEDSRYMKPGKELKVLSYPAHEQIALLVPEKLTPHLKYYVAMDFQAKLGDGFEGFYKSTYRTLGGETRILAVTDFEPTQARMAFPCFDEPLFKANFSIKIRRESRHIALSNMPKVKTIELEGGLLEDHFETTVKMSTYLVAYIVCDFHSLSGFTSSGVKVSIYASPDKRNQTHYALQASLKLLDFYEKYFDIYYPLSKLDLIAIPDFAPGAMENWGLITYRETSLLFDPKTSSASDKLWVTRVIAHELAHQWFGNLVTMEWWNDIWLKEGFAKYMELIAVNATYPELQFDDYFLNVCFEVITKDSLNSSRPISKPAETPTQIQEMFDEVSYNKGACILNMLKDFLGEEKFQKGIIQYLKKFSYRNAKNDDLWSSLSNSCLESDFTSGGVCHSDPKMTSNMLAFLGENAEVKEMMTTWTLQKGIPLLVVKQDGCSLRLQQERFLQGVFQEDPEWRALQERYLWHIPLTYSTSSSNVIHRHILKSKTDTLDLPEKTSWVKFNVDSNGYYIVHYEGHGWDQLITQLNQNHTLLRPKDRVGLIHDVFQLVGAGRLTLDKALDMTYYLQHETSSPALLEGLSYLESFYHMMDRRNISDISENLKRYLLQYFKPVIDRQSWSDKGSVWDRMLRSALLKLACDLNHAPCIQKAAELFSQWMESSGKLNIPTDVLKIVYSVGAQTTAGWNYLLEQYELSMSSAEQNKILYALSTSKHQEKLLKLIELGMEGKVIKTQNLAALLHAIARRPKGQQLAWDFVRENWTHLLKKFDLGSYDIRMIISGTTAHFSSKDKLQEVKLFFESLEAQGSHLDIFQTVLETITKNIKWLEKNLPTLRTWLMVNT [Q6P179]”, the “percentage of EdU-negative” value [1, 3] is reported as 25.63 ± 0.041%, the “percentage of EdU-negative” value ([1]; protein concentration 0.225 µM) is reported as 25.5 ± 0.38% and the “percentage of EdU-negative” value [2, 3] is reported as 4.8 ± 0.71%. The “percentage of EdU-negative” value ([2]; protein concentration 0.225 µM) was 5.45 ± 0.3%.
With “MFHVSFRYIFGLPPLILVLLPVASSDCDIEGKDGKQYESVLMVSIDQLLDSMKEIGSNCLNNEFNFFKRHICDANKEGMFLFRAARKLRQFLKMNSTGDFDLHLLKVSEGTTILLNCTGQVKGRKPAALGEAQPTKSLEENKSLKEQKKLNDLCFLKRLLQEIKTCWNKILMGTKEH” the “percentage of EdU-negative” value [1, 3] was 27.6 ± 3.5%, the “percentage of EdU-negative” value [1, 4] was 26 ± 0.34% and the “percentage of EdU-negative” value ([1]; protein concentration 0.225 µM) was 25.3 ± 1.1%. The “percentage of EdU-negative” value [1, 5] was 25.9 ± 0.41%, the “percentage of EdU-negative” value [2, 3] was 5.22 ± 1% and the “percentage of EdU-negative” value [2, 4] was 5.03 ± 1.4%. For the same sequence, the “percentage of EdU-negative” value ([2]; protein concentration 0.225 µM) was 6.63 ± 0.069% and the “percentage of EdU-negative” value [2, 5] was 4.47 ± 0.49%.
“MFIKVMFGAGCSVLVNTSCRLVNLTAHLRQKAGLPPDATIALLAEDGNLVSLEEDLKEGASRAQTMGNSLLKERAIYVLVRIIKGEDMASTRYESLLENLDDHYPELAEELRRLSGLSSVGHNWRKRMGTRRGRHEQSPTSRPRKGPD [Q8WYQ4]” was tested, and the “percentage of EdU-negative” value [1, 4] was 28 ± 1.6%, the “percentage of EdU-negative” value [1, 5] was 25.79 ± 0.035% and the “percentage of EdU-negative” value [2, 4] was 5.45 ± 0.84%. For the same sequence, the “percentage of EdU-negative” value [2, 5] was 5.68 ± 0.37%.
With “MFKCWSVVLVLGFIFLESEGRPTKEGGYGLKSYQPLMRLRHKQEKNQESSRVKGFMIQDGPFGSCENKYCGLGRHCVTSRETGQAECACMDLCKRHYKPVCGSDGEFYENHCEVHRAACLKKQKITIVHNEDCFFKGDKCKTTEYSKMKNMLLDLQNQKYIMQENENPNGDDISRKKLLVDQMFKYFDADSNGLVDINELTQVIKQEELGKDLFDCTLYVLLKYDDFNADKHLALEEFYRAFQVIQLSLPEDQKLSITAATVGQSAVLSCAIQGTLRPPIIWKRNNIILNNLDLEDINDFGDDGSLYITKVTTTHVGNYTCYADGYEQVYQTHIFQVNVPPVIRVYPESQAREPGVTASLRCHAEGIPKPQLGWLKNGIDITPKLSKQLTLQANGSEVHISNVRYEDTGAYTCIAKNEAGVDEDISSLFVEDSARKTLANILWREEGLGIGNMFYVFYEDGIKVIQPIECEFQRHIKPSEKLLGFQDEVCPKAEGDEVQRCVWASAVNVKDKFIYVAQPTLDRVLIVDVQSQKVVQAVSTDPVPVKLHYDKSHDQVWVLSWGTLEKTSPTLQVITLASGNVPHHTIHTQPVGKQFDRVDDFFIPTTTLIITHMRFGFILHKDEAALQKIDLETMSYIKTINLKDYKCVPQSLAYTHLGGYYFIGCKPDSTGAVSPQVMVDGVTDSVIGFNSDVTGTPYVSPDGHYLVSINDVKGLVRVQYITIRGEIQEAFDIYTNLHISDLAFQPSFTEAHQYNIYGSSSTQTDVLFVELSSGKVKMIKSLKEPLKAEEWPWNRKNRQIQDSGLFGQYLMTPSKDSLFILDGRLNKLNCEITEVEKGNTVIWVGDA [Q8N475]” the “percentage of EdU-negative” value [1, 6] was 24.2 ± 4.5%, the “percentage of EdU-negative” value [1, 7] was 26.4 ± 1.8% and the “percentage of EdU-negative” value [2, 6] was 4.72 ± 1.2%. The “percentage of EdU-negative” value [2, 7] was 6.54 ± 0.16%.
In the case of “MFLKAVVLTLALVAVAGARAEVSADQVATVMWDYFSQLSNNAKEAVEHLQKSELTQQLNALFQDKLGEVNTYAGDLQKKLVPFATELHERLAKDSEKLKEEIGKELEELRARLLPHANEVSQKIGDNLRELQQRLEPYADQLRTQVSTQAEQLRRQLTPYAQRMERVLRENADSLQASLRPHADELKAKIDQNVEELKGRLTPYADEFKVKIDQTVEELRRSLAPYAQDTQEKLNHQLEGLTFQMKKNAEELKARISASAEELRQRLAPLAEDVRGNLRGNTEGLQKSLAELGGHLDQQVEEFRRRVEPYGENFNKALVQQMEQLRQKLGPHAGDVEGHLSFLEKDLRDKVNSFFSTFKEKESQDKTLSLPELEQQQEQQQEQQQEQVQMLAPLES”, the “percentage of EdU-negative” value [1, 8] is reported as 22.7 ± 1.3%, the “percentage of EdU-negative” value [1, 9] is reported as 27 ± 1.5% and the “percentage of EdU-negative” value [2, 8] is reported as 5.7 ± 1%. For the same sequence, the “percentage of EdU-negative” value [2, 9] was 7.022 ± 0.041%.
With “MFPFYSCWRTGLLLLLLAVAVRESWQTEEKTCDLVGEKGKESEKELALVKRLKPLFNKSFESTVGQGSDTYIYIFRVCREAGNHTSGAGLVQINKSNGKETVVGRLNETHIFNGSNWIMLIYKGGDEYDNHCGKEQRRAVVMISCNRHTLADNFNPVSEERGKVQDCFYLFEMDSSLACSPEISHLSVGSILLVTFASLVAVYVVGGFLYQRLVVGAKGMEQFPHLAFWQDLGNLVADGCDFVCRSKPRNVPAAYRGVGDDQLGEESEERDDHLLPM” the “percentage of EdU-negative” value [1, 4] was 25.21 ± 0.13%, the “percentage of EdU-negative” value [1, 5] was 24.8 ± 1.1% and the “percentage of EdU-negative” value [2, 4] was 5.26 ± 0.29%. The “percentage of EdU-negative” value [2, 5] was 5.43 ± 0.57%.
“MFSTKALLLAGLISTALAGPWANICAGKSSNEIRTCDRHGCGQYSAQRSQRPHQGVDILCSAGSTVYAPFTGMIVGQEKPYQNKNAINNGVRISGRGFCVKMFYIKPIKYKGPIKKGEKLGTLLPLQKVYPGIQSHVHIENCDSSDPTAYL” was tested, and the “percentage of EdU-negative” value [1, 3] was 23.8 ± 1.3%, the “percentage of EdU-negative” value ([1]; protein concentration 0.225 µM) was 26.3 ± 0.79% and the “percentage of EdU-negative” value [2, 3] was 4.82 ± 1.7%. The “percentage of EdU-negative” value ([2]; protein concentration 0.225 µM) was 7.53 ± 0.43%.
For “MFTIKLLLFIVPLVISSRIDQDNSSFDSLSPEPKSRFAMLDDVKILANGLLQLGHGLKDFVHKTKGQINDIFQKLNIFDQSFYDLSLQTSEIKEEEKELRRTTYKLQVKNEEVKNMSLELNSKLESLLEEKILLQQKVKYLEEQLTNLIQNQPETPEHPEVTSLKTFVEKQDNSIKDLLQTVEDQYKQLNQQHSQIKEIENQLRRTSIQEPTEISLSSKPRAPRTTPFLQLNEIRNVKHDGIPAECTTIYNRGEHTSGMYAIRPSNSQVFHVYCDVISGSPWTLIQHRIDGSQNFNETWENYKYGFGRLDGEFWLGLEKIYSIVKQSNYVLRIELEDWKDNKHYIEYSFYLGNHETNYTLHLVAITGNVPNAIPENKDLVFSTWDHKAKGHFNCPEGYSGGWWWHDECGENNLNGKYNKPRAKSKPERRRGLSWKSQNGRLYSIKSTKMLIHPTDSESFE [Q9Y5C1]”, the “percentage of EdU-negative” value [1, 10] was 25.5 ± 1.9%, the “percentage of EdU-negative” value [1, 11] was 25.9 ± 2.1% and the “percentage of EdU-negative” value [2, 10] was 4.63 ± 0.83%. The “percentage of EdU-negative” value [2, 11] was 6.34 ± 0.5%.
With “MFWKLSLSLFLVAVLVKVAEARKNRPAGAIPSPYKDGSSNNSERWQHQIKEVLASSQEALVVTERKYLKSDWCKTQPLRQTVSEEGCRSRTILNRFCYGQCNSFYIPRHVKKEEESFQSCAFCKPQRVTSVLVELECPGLDPPFRLKKIQKVKQCRCMSVNLSDSDKQ [Q9H772]” the “percentage of EdU-negative” value [1, 12] was 22.3 ± 1.6%, the “percentage of EdU-negative” value [1, 13] was 27.2 ± 0.92% and the “percentage of EdU-negative” value [2, 12] was 5.28 ± 0.078%. The “percentage of EdU-negative” value [2, 13] was 5.14 ± 0.38%.
In the case of “MGAAARLSAPRALVLWAALGAAAHIGPAPDPEDWWSYKDNLQGNFVPGPPFWGLVNAAWSLCAVGKRQSPVDVELKRVLYDPFLPPLRLSTGGEKLRGTLYNTGRHVSFLPAPRPVVNVSGGPLLYSHRLSELRLLFGARDGAGSEHQINHQGFSAEVQLIHFNQELYGNFSAASRGPNGLAILSLFVNVASTSNPFLSRLLNRDTITRISYKNDAYFLQDLSLELLFPESFGFITYQGSLSTPPCSETVTWILIDRALNITSLQMHSLRLLSQNPPSQIFQSLSGNSRPLQPLAHRALRGNRDPRHPERRCRGPNYRLHVDGVPHGR”, the “percentage of EdU-negative” value ([1]; protein concentration 0.021 µM) is reported as 25.5 ± 1.3%, the “percentage of EdU-negative” value ([1]; protein concentration 0.21 µM) is reported as 24.9 ± 0.45% and the “percentage of EdU-negative” value ([2]; protein concentration 0.021 µM) is reported as 4.83 ± 0.27%. The “percentage of EdU-negative” value ([2]; protein concentration 0.21 µM) was 7.53 ± 1.3%.
In the case of “MGAARLLPNLTLCLQLLILCCQTQGENHPSPNFNQYVRDQGAMTDQLSRRQIREYQLYSRTSGKHVQVTGRRISATAEDGNKFAKLIVETDTFGSRVRIKGAESEKYICMNKRGKLIGKPSGKSKDCVFTEIVLENNYTAFQNARHEGWFMAFTRQGRPRQASRSRQNQREAHFIKRLYQGQLPFPNHAEKQKQFEFVGSAPTRRTKRTRRPQPLT”, the “percentage of EdU-negative” value [1, 14] is reported as 26.1 ± 0.65%, the “percentage of EdU-negative” value [1, 15] is reported as 25.6 ± 3.5% and the “percentage of EdU-negative” value [2, 14] is reported as 4.842 ± 0.02%. For the same sequence, the “percentage of EdU-negative” value [2, 15] was 5.5 ± 0.25%.
